Data taken from US20220048967A1 (published 2022).
Numbered stars: 1 amine (or outer) side, 2 acyl side, 3 side chain; on linkers, the order of the positions; unused ones are H or OH. Square brackets hold non-standard residues; d marks the D form. Side chains are listed from the residue outwards. Ends that are not written are not given here. * marks the point of attachment. C20 diacid = O=C(O)CCCCCCCCCCCCCCCCCCC(=O)*; γGlu = O=C(O)[C@H](CCC(=O)[*:2])N[*:1]; AEEA = NCCOCCOCC(=O)O; Aib = CC(C)(N)C(=O)O

T1: human GIP receptor (human, UniProt P48546 22-466)
T1 sequence (looked up): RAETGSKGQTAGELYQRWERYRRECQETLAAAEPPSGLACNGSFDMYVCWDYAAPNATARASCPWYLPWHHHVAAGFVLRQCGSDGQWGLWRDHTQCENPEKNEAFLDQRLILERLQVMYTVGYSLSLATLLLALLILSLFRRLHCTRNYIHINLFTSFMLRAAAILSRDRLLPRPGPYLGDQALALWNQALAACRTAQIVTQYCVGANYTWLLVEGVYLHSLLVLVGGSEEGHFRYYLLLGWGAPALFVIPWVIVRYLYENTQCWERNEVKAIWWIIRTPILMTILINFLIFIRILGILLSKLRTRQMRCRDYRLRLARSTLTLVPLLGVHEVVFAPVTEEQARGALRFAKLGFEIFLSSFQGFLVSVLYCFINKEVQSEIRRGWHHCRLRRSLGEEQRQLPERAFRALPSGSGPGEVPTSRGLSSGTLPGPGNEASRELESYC

B1: Example 24 (peptide)
peptide: Y[Aib]EGTFTSDYK([AEEA-AEEA-γGlu-C20 diacid])ILLDKIAQ[Aib]AFIEYLIEGGPSSGAPPPS-NH2
modifications: N-terminus assumed
SMILES: CC[C@H](C)[C@H](NC(=O)[C@H](CCCCN)NC(=O)[C@H](CC(=O)O)NC(=O)[C@H](CC(C)C)NC(=O)[C@H](CC(C)C)NC(=O)[C@@H](NC(=O)[C@H](CCCCNC(=O)COCCOCCNC(=O)COCCOCCNC(=O)CC[C@H](NC(=O)CCCCCCCCCCCCCCCCCCC(=O)O)C(=O)O)NC(=O)[C@H](Cc1ccc(O)cc1)NC(=O)[C@H](CC(=O)O)NC(=O)[C@H](CO)NC(=O)[C@@H](NC(=O)[C@H](Cc1ccccc1)NC(=O)[C@@H](NC(=O)CNC(=O)[C@H](CCC(=O)O)NC(=O)C(C)(C)NC(=O)[C@@H](N)Cc1ccc(O)cc1)[C@@H](C)O)[C@@H](C)O)[C@@H](C)CC)C(=O)N[C@@H](C)C(=O)N[C@@H](CCC(N)=O)C(=O)NC(C)(C)C(=O)N[C@@H](C)C(=O)N[C@@H](Cc1ccccc1)C(=O)N[C@H](C(=O)N[C@@H](CCC(=O)O)C(=O)N[C@@H](Cc1ccc(O)cc1)C(=O)N[C@@H](CC(C)C)C(=O)N[C@H](C(=O)N[C@@H](CCC(=O)O)C(=O)NCC(=O)NCC(=O)N1CCC[C@H]1C(=O)N[C@@H](CO)C(=O)N[C@@H](CO)C(=O)NCC(=O)N[C@@H](C)C(=O)N1CCC[C@H]1C(=O)N1CCC[C@H]1C(=O)N1CCC[C@H]1C(=O)N[C@@H](CO)C(N)=O)[C@@H](C)CC)[C@@H](C)CC
B2: Example 23 (peptide)
peptide: Y[Aib]EGTFTSDK([AEEA-AEEA-γGlu-C20 diacid])SILLDKIAQ[Aib]AFIEYLIEGGPSSGAPPPS-NH2
modifications: N-terminus assumed
SMILES: CC[C@H](C)[C@H](NC(=O)[C@H](CCCCN)NC(=O)[C@H](CC(=O)O)NC(=O)[C@H](CC(C)C)NC(=O)[C@H](CC(C)C)NC(=O)[C@@H](NC(=O)[C@H](CO)NC(=O)[C@H](CCCCNC(=O)COCCOCCNC(=O)COCCOCCNC(=O)CC[C@H](NC(=O)CCCCCCCCCCCCCCCCCCC(=O)O)C(=O)O)NC(=O)[C@H](CC(=O)O)NC(=O)[C@H](CO)NC(=O)[C@@H](NC(=O)[C@H](Cc1ccccc1)NC(=O)[C@@H](NC(=O)CNC(=O)[C@H](CCC(=O)O)NC(=O)C(C)(C)NC(=O)[C@@H](N)Cc1ccc(O)cc1)[C@@H](C)O)[C@@H](C)O)[C@@H](C)CC)C(=O)N[C@@H](C)C(=O)N[C@@H](CCC(N)=O)C(=O)NC(C)(C)C(=O)N[C@@H](C)C(=O)N[C@@H](Cc1ccccc1)C(=O)N[C@H](C(=O)N[C@@H](CCC(=O)O)C(=O)N[C@@H](Cc1ccc(O)cc1)C(=O)N[C@@H](CC(C)C)C(=O)N[C@H](C(=O)N[C@@H](CCC(=O)O)C(=O)NCC(=O)NCC(=O)N1CCC[C@H]1C(=O)N[C@@H](CO)C(=O)N[C@@H](CO)C(=O)NCC(=O)N[C@@H](C)C(=O)N1CCC[C@H]1C(=O)N1CCC[C@H]1C(=O)N1CCC[C@H]1C(=O)N[C@@H](CO)C(N)=O)[C@@H](C)CC)[C@@H](C)CC

Tests used:
human GLP-1 receptor = human GLP-1 receptor (human, UniProt P43220 24-463); assay: cell-based or functional assay
human GIP receptor = target: T1, human GIP receptor; assay: cell-based or functional assay

| Binder | hGLP1R cAMP EC50 ratio (human GLP-1 receptor) | hGLP1R cAMP Rel EC50 (human GLP-1 receptor) [nM] | hGIPR cAMP EC50 ratio (human GIP receptor) | hGIPR cAMP Rel EC50 (human GIP receptor) [nM] |
| --- | --- | --- | --- | --- |
| B1 | 0.00416 | 13 | 0.228 | 0.762 |
| B2 | 0.342 | 0.19 | 0.754 | 0.204 |
